From patent publication US20050208120A1

Columns and labels:
[1] = molecular target: T cell receptor of the I-A^d restricted OVA specific T cell hybridoma 8DO51.15; assay: flow cytometry; biotinylated MHC in liposomes, no peptide
[2] = molecular target: T cell receptors of CD4+ cells from BALB/c fetal thymic organ culture (FTOC); assay: flow cytometry T cell capture; FTOC alone without added peptide; polyclonal thymocytes
[3] = molecular target: T cell receptors of CD4+ T cells from regional draining lymph nodes of BALB/c mice; assay: flow cytometry T cell capture; lymph node cells of IFA-only immunized BALB/c mice; polyclonal
[4] = molecular target: T cell receptors of T cell populations derived from Iα52-supplemented FTOC and expanded with Hi15; assay: flow cytometry; cells from Iα52-supplemented FTOC after two weeks with 10 ug/ml Hi15; polyclonal
[5] = molecular target: T cell receptors of CD4+ cells from BALB/c fetal thymic organ culture (FTOC); assay: flow cytometry T cell capture; FTOC in the presence of 10^-2 mM Iα52; polyclonal thymocytes
[6] = molecular target: T cell receptors of T cell populations derived from Iα52-supplemented FTOC and expanded with Hi15
[7] = molecular target: T cell receptors of CD4+ T cells from regional draining lymph nodes of BALB/c mice; assay: flow cytometry T cell capture; lymph node cells of Iα52-immunized BALB/c mice; polyclonal
[8] = molecular target: T cell receptor of the I-A^d restricted OVA specific T cell hybridoma 8DO51.15; assay: flow cytometry; correct restriction element, irrelevant peptide, on 8D051.15 cells
[9] = molecular target: T cell receptor of the I-A^d restricted OVA specific T cell hybridoma 8DO51.15; assay: flow cytometry; liposome:MHC:b-peptide with streptavidin-FITC on hybridoma cells, final MHC concentration 66 ug/ml

B1: biotinylated I-A^d in liposomes without peptide (protein, mouse)
MHC II alpha: EDDIEADHVGFYGTTVYQSPGDIGQYTHEFDGDELFYVDLDKKKTVWRLPEFGQLILFEPQGGLQNIAAEKHNLGILTKRSNFTPATNEAPQATVFPKSPVLLGQPNTLICFVDNIFPPVINITWLRNSKSVTDGVYETSFLVNRDHSFHKLSYLTFIPSDDDIYDCKVEHWGLEEPVLKHWEPEIPAPMSELTE
MHC II beta: GNSERHFVVQFKGECYYTNGTQRIRLVTRYIYNREEYVRYDSDVGEYRAVTELGRPDAEYWNSQPEILERTRAEVDTACRHNYEGPETSTSLRRLEQPNVAISLSRTEALNHHNTLVCSVTDFYPAKIKVRWFRNGQEETVGVSSTQLIRNGDWTFQVLVMLEMTPHQGEVYTCHVEHPSLKSPITVEWRAQSESARSK
% of cells bound [1]: 6.9%

B2: liposome:I-A^d:biotinylated Iα52 peptide complex (peptide-MHC, mouse)
MHC II alpha: EDDIEADHVGFYGTTVYQSPGDIGQYTHEFDGDELFYVDLDKKKTVWRLPEFGQLILFEPQGGLQNIAAEKHNLGILTKRSNFTPATNEAPQATVFPKSPVLLGQPNTLICFVDNIFPPVINITWLRNSKSVTDGVYETSFLVNRDHSFHKLSYLTFIPSDDDIYDCKVEHWGLEEPVLKHWEPEIPAPMSELTE
MHC II beta: GNSERHFVVQFKGECYYTNGTQRIRLVTRYIYNREEYVRYDSDVGEYRAVTELGRPDAEYWNSQPEILERTRAEVDTACRHNYEGPETSTSLRRLEQPNVAISLSRTEALNHHNTLVCSVTDFYPAKIKVRWFRNGQEETVGVSSTQLIRNGDWTFQVLVMLEMTPHQGEVYTCHVEHPSLKSPITVEWRAQSESARSK
peptide: ASFEAQGALANIAVDKA
% of CD4+ cells bound [2]: 20.7%
% of CD4+ T cells specific [3]: 0.7%
% of cells bound [4]: 52.8%
% of CD4+ cells bound [5]: 50.9%
% of CD4+ cells positive for both peptides [6]: 31.1%
% of CD4+ T cells specific [7]: 5.4%

B3: liposome:I-A^d:biotinylated Hi15 peptide complex (peptide-MHC)
MHC II alpha: EDDIEADHVGFYGTTVYQSPGDIGQYTHEFDGDELFYVDLDKKKTVWRLPEFGQLILFEPQGGLQNIAAEKHNLGILTKRSNFTPATNEAPQATVFPKSPVLLGQPNTLICFVDNIFPPVINITWLRNSKSVTDGVYETSFLVNRDHSFHKLSYLTFIPSDDDIYDCKVEHWGLEEPVLKHWEPEIPAPMSELTE
MHC II beta: GNSERHFVVQFKGECYYTNGTQRIRLVTRYIYNREEYVRYDSDVGEYRAVTELGRPDAEYWNSQPEILERTRAEVDTACRHNYEGPETSTSLRRLEQPNVAISLSRTEALNHHNTLVCSVTDFYPAKIKVRWFRNGQEETVGVSSTQLIRNGDWTFQVLVMLEMTPHQGEVYTCHVEHPSLKSPITVEWRAQSESARSK
peptide: TSFPMRGDLAKREPDK
% of CD4+ cells positive for both peptides [6]: 31.1%
% of cells positive [6]: 52%
% positive cells [8]: 8.7%

B4: liposome:I-A^d:biotinylated OVA^323-336 peptide complex (peptide-MHC, mouse)
MHC II alpha: EDDIEADHVGFYGTTVYQSPGDIGQYTHEFDGDELFYVDLDKKKTVWRLPEFGQLILFEPQGGLQNIAAEKHNLGILTKRSNFTPATNEAPQATVFPKSPVLLGQPNTLICFVDNIFPPVINITWLRNSKSVTDGVYETSFLVNRDHSFHKLSYLTFIPSDDDIYDCKVEHWGLEEPVLKHWEPEIPAPMSELTE
MHC II beta: GNSERHFVVQFKGECYYTNGTQRIRLVTRYIYNREEYVRYDSDVGEYRAVTELGRPDAEYWNSQPEILERTRAEVDTACRHNYEGPETSTSLRRLEQPNVAISLSRTEALNHHNTLVCSVTDFYPAKIKVRWFRNGQEETVGVSSTQLIRNGDWTFQVLVMLEMTPHQGEVYTCHVEHPSLKSPITVEWRAQSESARSK
peptide: ISQAVHAAHAEINE
% of cells stained positive [9]: 87.2%
